Experiment: soluble on expression in E. coli; label from the status in PepcDB or PDB records

Sequence	soluble on expression in E. coli
MGSDKIHHHHHHMVRHKRDIQRDTVPEWEDLRQLAHEIKRYNVTHLDELLLRFEENARRNGVIVHWAKDAKEHNEILYGILRDHGVKKFVKSKSMLTEECHLNEYLIEKGINVIETDLGERILQLMEEPPSHIVMPAIHIKREAVSDLFHDKLGTEKGNYDPTYLTRAARKSLREDFISADAAMTGGNFAVASTGEVVVCTNEGNADMGMACQKLNICSFGLEKLVPDLDAVGVFTRLLARSGTGQPSTTYTAHYRKPHEGGELHYIIVDNGRTDIIENEEHVKTLNCIRCGACMNTCPVYRRSGGYSYTYFIPGPIGINLGMLKDPRRYSDNVSACSLCLSCSNVCPVKIDLGEQIYRWRQDLDHLGRASQEKKLMSAGMKYLMDSPWRFNTALKMAPMANSLPRFLLYNGLNAWGKGRELPRFASTSFNNWWKKNIKK	not soluble
MSIRSGSRRLELPHLSFPGLLRMNIHKNARLTPLRREEMAVAVFGGRLTKAQAARLYGVSLKIVSRWTERFRISGRAAMTDRSSRPTRSPRQMGQDIVERILHLRRQRLTGKHIAMETGVSPATVSRILRRAKLSRMKDIDPVEPVIRYEYAEPGGLIHLDIKRLGRFERVGHRITGNRTRQSNTRGVGWEYVHVCIDDVSRIAFTDIFPDEKAIMPLEHHHHHH	not soluble
MKIAIIGYSGSGKSTLANFLGQHYNCEVLHLDKIHFTSNWQERTVDEMTDDISTFMLQSDWIIEGNYSACLYEERMREADCIVYFNFNRVNCLYRAFRRYLTYRGKTRPSMAEG	not soluble
MSIEWYAVHTLVGQEEKAKANLEKRIKAFGLQDKIFQVLIPTEEVVELREGGKKEVVRKKLFPGYLFIQMDLGDEEEPNEAWEVVRGTPGITGFVGAGMRPVPLSPDEVRHILEVSGLLGKKEAPKAQVAFREGDQVRVVSGPFADFTGTVTEINPERGKVKVMVTIFGRETPVELDFSQVVKA	soluble
MSLASPDWQDQIIYFLMIDRFNDGDSALNDQGQNEFDPTSDKKFSGGDLVGVSDKLSYIEDLGATSIWITPPVANQWWDAEQNYGGYHGYWARDFQKVDEHFGDMESYQALAREVHARNMFLIQDIVTNHVGNFFTYDDPYSYDPSLPCQGFRLIKNALPAGQELPYPLNMNECKTDGTGSYHWTPTITDHNDPVQEKTWQLSDLDDLNTSDPEVRAYLKESYRKWIREVGVDGFRIDTVKFVEHDFWSDFLHADDGVMTQAVDTGRDNFLTFGEVFETSTPYHTEGEEKMLTYIGESGSPKQLTSVLNFPLQATMTRVFASGQPTDYLRFRLEKMMEMFPNPYIMPNFIDNHDMPRFLSQGSVNDMKQALITMMSVPGIPVIYQGTEQAMSAARDAMFAGGYREDGNYVDSFDQNSEMYLFIQELAKLRTENKVMTRGEIKVIGSDKAGAGVFAFTRTLDNDEVLVVMNTSNSPMLMNQLDVEQAGGTVFKQQIMSNWADAPEQLVADENGHVTLELPAKSAVIYSKTSSNQSVNTPDLNIQLAQDWEGKTITGDIVIAGSANANEKLNLVVDGNLETAQTITVGADGQFSVTLSTRHFAIGEQQHRFAIYSTEKKAGIEDVNFVSNLSWSNTPDDTIDDAGDAQDGVGGPNGNYSLPTDPTFDKDNSQLAINKAEVFTVGSNVRLTFTMDKITDTWLPPNGFDHVGFTIFIDLPEEAATNLSELPKINASMPNGTWSRNAVVFGWQSSIYNTKGANATTWGEAVTPAPTVTVDKANNTISMDFASDALGRPESLDGIRFYVTTWDLDGLSATYRPLEQDKGPWNFSGGASDESKIWDDLPIITLSEGHHHHHH	not soluble
MSEHETAGEGRFNSIEIRVLGSLIEKQATSPESYPLTLNALVLACNQKTSREPVMNLTQGQVGQALRALEGQGMTRLQMGSRADRWEHRVDKALELVPAQLVLMGLMFLRGPQTLNELLTRSNRLHDFDDTEQIQHQLERLISRDLALHLPRQAGQREDRYTHALGDPAEIEAILAARQQEGGARTSGGSVSEDRIEALEARIAALEARLAELEG	not soluble
MPGKNEYAVESLLTVGNGFLGLRGTTPEMTISDDHYPATYIAGLYNTAASEVAGQVVENEDFVNAPDNQHIALKIGDATDWLTISPDTLQQLHRQLNLKTGLFVAEMILKDADNQQIKLTTKKIANMAQPNDYHLQYTFEPLNFSAPITLKTVTDGSVYNYNVARYRNLTAKHFQVTALSAQENKTVIEVCTNQSNLSVRETSLITGDFFEKEAITIQEEAEKIAQVVTVMAHQGTRYTLEKQVFVQASHAEQSWQVPFTPKDSFAAAAQESARAWQTLWQQANITVTGDLMSQKLLRIHSYHLLASASPFSNQAQALDVSITARGLHGEAYRGHIFWDEIFILPFYIQHYPDTAKQLLLYRYHRLEKAKENAAASQYRGAMYPWQSGRDGRETTQKLHLNPLNGHWGEDHSILQRHVSLAIAYNAWLYWHSTQDHEFMKQYGGEMLLEIAQFWNSAATLDDATGRFFIDKVMGPDEFHEGYPDQAESGLKNNAYTNLMVVWLFEELTNILALFSEEEQAQLFAKTQTTSADLARMQQIQNSLEIEVNSDGIIAQYEGYFGLKEIDWTAMKEKYGNIYRMDRILKAEGESPDDYKVAKQADTLMLFYNLDKTRVDQILEDLGYQLPADYLEKNLLYYLKRTSHGSTLSRIVHAQLAEMAQFHELSWQLYQEALYSDYRDIQGGTTAEGIHTGVMAATIHVTLATYAGVDTRQNELSICPNLPEHWQALAFQFIHQGVTYQFSLTQTSVTITADRDTQLLVQGALIPLTAERPKEVHYQ	not soluble
MSLDPDAGVIFARTAAGAAVALGLLKCGRIWLCPVCSGQDPARPSEEITEAVVSWLQQGGWAYLVTFTARHTAADRLSDLMDALQGTRADAETGTKRRPGAYQRLITGAAWAGDKRRKSNQEGIRGRIGYIGMIRATEVTVGEGAGWHPHIHAIVLVGGRTEGQRGDKRITGTFTPSEDALTEWEDRWRRSGPATLARSTPGFRPPTGARSPGATAGARATASTSSSSVRSGRQRPGRVHRQDAGRQEPGPGAGTRRPQGRPPGQHDVLRTPSRIGDLMGGVPEEEAAGHGSLAWGLDRWAEYETAVSGAGHRVDPLPAPAPGPDRRRHRGRRHGRPVPDRAARRFRDGVQIWDRAWKGLVGRSLDLAVVEAVEGREISMDALGELVQSAGQSRAFLRVLTPQEVTELYDELLRTLARRREQAAERRAAEAAEAEPTTREGHHHHHH	not soluble
LLEQESLPATGELYEHAACGLLVTLPNGTIERANLTFCRWLGLEREAVIGRRFQDLLNLAGKVFLQTHWAPLLQTQGSIAEVKVELIHADGRSVPMMLNAIRREYPSGFLHEVAVFLAEE	not soluble
MSTRNSRSELEKTAVQLFRKLGTRTVLFHQAAAQALGLFPTDLKSADILNEAGPMTAGELGKKTGLSTGSVTALVDRLEKAGVCGSWKRTPNDRRRVVIVPLTASKKHIKDLFRPLSESTMDLCREYTEEELELIFSFVGKAADIMEEELERLKQ	not soluble
DKMTIEVPVLTFVPVQVSAELENRGCWVKFFDKKNFQGDSLFLSGPATLPRLIGPFGYDWENKVRSVKVGPRANLTIFDNHNYRDEDKFLDAGANVANLSKEMGFFDNFRSMVLNCI	soluble
PHMSGLKKFFPYSTNVLKGAAADIALPSLAGKTVFFYFSASWCPPCRAFTPQLIDFYKAHAESKNFEVMLISWDESAEDFKDYYAKMPWLALPFEDRKGMEFLTTGFDVKSIPTLVGVEADSGNIITTQARTMVVKDPEAKDFPWPNVEAKK	soluble
